Two proteins from paper PMC6089974 can be followed below.

Substitutions are numbered along the chain they refer to. Numbers in names are those of the source.

For orientation: Km means the concentration of substrate that gives half-maximal velocity. One may read the kcat as the number of substrate molecules converted per active site and unit of time at saturation. As usually defined, the kcat/Km is the turnover number divided by the Michaelis constant.

Assay in all cases: purified protein
Substrate in series [1]: O=[N+]([O-])c1ccc(O[C@H]2C=C(CO)[C@H](O)[C@H](O)[C@H]2F)c([N+](=O)[O-])c1
As to conditions: 50 mM HEPES pH 7.4, 37 °C, covalent intermediate slowly hydrolysed, apparent binding constant.

Substrate in series [2]: O=[N+]([O-])c1ccc(O[C@H]2C=C(CO)[C@H](O)[C@H](O)[C@H]2O)c([N+](=O)[O-])c1
As to conditions: 50 mM HEPES pH 7.4, 37 °C, covalent intermediate slowly hydrolysed, 3b equilibrates in D2O with its C-2 aryloxy isomer (~2:1).

Substrate in series [3]: O=[N+]([O-])c1ccc(O[C@H]2O[C@H](CO)[C@H](O)[C@H](O)[C@H]2F)c([N+](=O)[O-])c1
The following applies: 50 mM HEPES pH 7.4, 37 °C, printed Km does not agree with printed kcat and kcat/Km (possible misprint).

Substrate in series [4]: O=[N+]([O-])c1ccc(O[C@H]2O[C@H](CO)[C@H](O)[C@H](O)[C@H]2O)cc1
The following applies: 50 mM HEPES pH 7.4, 37 °C, acid/base mutant.

B1: TmGalA (Thermotoga maritima MSB8) (protein)
chain: MEIFGKTFREGRFVLKEKNFTVEFAVEKIHLGWKISGRVKGSPGRLEVLRTKAPEKVLVNNWQSWGPCRVVDAFSFKPPEIDPNWRYTASVVPDVLERNLQSDYFVAEEGKVYGFLSSKIAHPFFAVEDGELVAYLEYFDVEFDDFVPLEPLVVLEDPNTPLLLEKYAELVGMENNARVPKHTPTGWCSWYHYFLDLTWEETLKNLKLAKNFPFEVFQIDDAYEKDIGDWLVTRGDFPSVEEMAKVIAENGFIPGIWTAPFSVSETSDVFNEHPDWVVKENGEPKMAYRNWNKKIYALDLSKDEVLNWLFDLFSSLRKMGYRYFKIDFLFAGAVPGERKKNITPIQAFRKGIETIRKAVGEDSFILGCGSPLLPAVGCVDGMRIGPDTAPFWGEHIEDNGAPAARWALRNAITRYFMHDRFWLNDPDCLILREEKTDLTQKEKELYSYTCGVLDNMIIESDDLSLVRDHGKKVLKETLELLGGRPRVQNIMSEDLRYEIVSSGTLSGNVKIVVDLNSREYHLEKEGKSSLKKRVVKREDGRNFYFYEEGERE
B1: the Km in the series “purified protein [1]” was 4.1 ± 0.9 µM; in “purified protein [2]” it was 1.68 ± 0.14 µM; in “purified protein [3]” it was 253 ± 8 µM. Besides, the kcat in the series “purified protein [1]” came out at 0.000229 ± 1.1e-05 s⁻¹. Further, in the series “purified protein [1]”, the kcat/Km came to 56 ± 13 M⁻¹ s⁻¹.

B2: TmGalA (Thermotoga maritima MSB8; D387A) (protein)
chain: B1 chain with D387A
With B2, in the series “purified protein [4]”, the Michaelis-Menten constant (Km) amounted to 184 ± 7 µM, the turnover number (kcat) was found to be 0.036 s⁻¹ and the catalytic efficiency (kcat/Km) was 196 M⁻¹ s⁻¹.
